From patent publication US20060286117A1, “Neuronally expressed stem cell factor modulates angiogenesis and neural stem cell migration to areas of brain injury” (priority 2003, published 2006)
Entries after “also recorded” stand apart in the source; their conditions may differ.

Experiments:
HBMEC = experiment: Matrigel tube formation (EC differentiation) assay, HBMEC; assay type: cell-based, human
Description: After the Matrigel (BD Biosciences) formed a solid gel in 24-well plates, serum-starved BMVEC-b cells were seeded on the gel surface at 10^5 cells per well and cultured in treatment medium in the presence or absence of SCF (20 ng/ml). Primary HBMEC were placed on the gel directly at 24×10^3 per well. Tubular formation was observed using an inverted phase contrast microscope, and images were captured at 4 and 18 hr after cell seeding. Each experiment was repeated two or three times.

bMVEC-B cells [1] = experiment: bMVEC-B tube formation on matrigel (Example 3); assay type: cell-based; settings: vs SCF-absent control
Text: Endothelial cell tube formation on extracellular matrix (ECM) is a commonly used in vitro model of EC differentiation and angiogenesis. We examined the SCF effects on the bMVEC-B cell tube formation.

[2] = tested on: c-Kit, MAPK and PI3K/Akt pathways in HUVEC; experiment: Immunoblot of SCF/c-Kit signal transduction, HUVEC; assay type: cell-based, human
Description: (§1) Confluent-grown ECs were treated with 50 ng/ml of SCF for 5, 10, 15, and 30 min after 24 hr of serum starvation. The ECs were collected with RIPA lysis buffer (Upstate, Charlottesville, Va.) containing 50 mM NaF, 1 mM Na3VO4, […], and Protease Inhibitor Cocktail (Roche). The antibodies were purchased from Cell Signaling Technology, Inc. (Beverly, Mass.) or as mentioned otherwise. All the primary antibodies were used in a 1:1000 dilution except for the anti-SCF antibody, which was used in a 1:2000 dilution. The primary antibodies were anti-phospho-c-Kit, anti-phospho-MEK1/2 and anti-MEK1/2, anti-phospho-p44/42 MAPK and anti-p44/42 MAPK, anti-phospho-SAPK/JNK and anti-SAPK/JNK, anti-phospho-p38 MAPK and anti-p38 MAPK, anti-phospho-Akt and anti-Akt, anti-phospho-mTOR and anti-mTOR, anti-phospho-4E-BP1 and anti-4E-BP1, anti-SCF and anti-VEGF (Chemicon, Temecula, Calif.), and anti-β-tubulin (Sigma). Re-blotting was done after membranes were stripped by re-blot kit (Chemicon). Tie2 detection in Matrigel plugs from the in vivo Matrigel assay was carried out by immunoprecipitation and immunoblotting. The gel plugs were carefully separated from muscle and skin and homogenized with RIPA lysis buffer. The resulting total tissue lysates ([…]) were immunoprecipitated with Tie2 antibody (Santa Cruz Biotechnology, Inc., Santa Cruz, Calif.) and then analyzed by immunoblot with Tie2 antibody (Zadeh et al. 2004 Am J Pathol 162:467-476).

SCID mice = experiment: In vivo angiogenesis assay, matrigel plug with rmSCF (Example 3); set-up: species or system mouse; settings: rmSCF 50 ng/ml, subcutaneous, 7 days, vs PBS control
Description: Recombinant mouse SCF (rmSCF) was used at 50 ng/ml in an in vivo angiogenesis assay. The matrigel plug containing SCF or PBS control was placed subcutaneously in SCID mice for 7 days, and the blood vessel formation within the gel was examined by H&E staining. […] In the higher magnification figure on the right side, the red blood cells inside of the newly formed vessel are indicated by an arrow.

[3] = tested on: c-Kit, MAPK and PI3K/Akt pathways in HBMEC; experiment: Immunoblot of SCF/c-Kit signal transduction, HBMEC; assay type: cell-based, human; settings: SCF 50 ng/ml
Description: as §1

HUVEC = experiment: Thymidine incorporation in HUVEC exposed to SCF; assay type: cell-based, human; settings: basal medium, 48 hr
Description: (§2) After ECs (3×10^3/well) were adhered to 96-well gelatin-coated plates (BD Discovery Labware, Bedford, Mass.), the EC growth medium was replaced by SCF ([…]) (R&D Systems, Minneapolis, Minn.) suspended in treatment medium (basal medium with 0.1% BSA) for an additional 48 hr (HUVEC and HMVEC-d) or 72 hr (BMVEC-b) with renewal of medium at 24 hr intervals. ECs were cultured for 4 hr in 0.25 μCi of [^3H]thymidine (Amersham Pharmacia Biotech, Piscataway, N.J.) at the end. High molecular mass [^3H]-radioactivity was precipitated and counted.

glioma cells = experiment: Glioma cell proliferation in vitro with SCF; assay type: cell-based, human; settings: even high concentrations of SCF
SVZ stem cells = experiment: In vivo SVZ cell tracking by ventricular DiI or GFP adenovirus before SCF injection; set-up: species or system mouse; settings: seven days after SCF injection
Description: For labeling of neural progenitors in vivo, BrdU (Roche) was administrated intraperitoneally twice a day, at 8-hour intervals, for 14 days (50 mg/kg body weight). Twenty hour from the last BrdU injection, several animals were killed and their brains were sectioned for BrdU immunostaining. Intracerebral injections were administered to the remaining animals. Stereotaxic surgery was performed as described in the “freeze” injury, and the injections were given at the position of 1 mm anterior to the bregma, 1.5 mm lateral to the midline, and 2.5 mm ventral to the dura. Mice received a suspension of rmSCF (3 μg in 3 μl of PBS; R&D systems) or PBS through a Hamilton syringe. Each injection took 15 min. Seven days from the intracranial injection, the animals were killed and the brains were processed for BrdU immunohistochemical analysis. For ventricular injection of DiI (1,1′-dioctadecyl-6,6′-di(4-sulfophenyl)-3,3,3′,3′-tetrametylindocarbocyanine; Molecular Probes) or adenovirus expressing GFP, 2 μl of 0.2% DiI in DMSO or 2 μl of replication incompetent adenovirus (10^8 plaque-forming units per μl) (He, T. C. et al. 1998 PNAS USA 95:2509-2514) was injected 0.5 mm posterior and 0.7 mm lateral to bregma, and 2 mm below the dura matter into the lateral ventricle. […] Seven days after SCF injection, the brains were sectioned and analyzed for DiI or GFP distributions.

bMVEC-B cells [4] = experiment: bMVEC-B DNA synthesis by thymidine incorporation (Example 3); assay type: cell-based; settings: rmSCF 1 ng/ml to 250 ng/ml, 72 hours
Description: To specifically confirm the pro-angiogenic effects of SCF in the brain, bMVEC-B cells were used. The cells were cultured in the presence of different concentrations of rmSCF (1 ng/ml to 250 ng/ml) or 0.1% BSA only medium for 72 hours. The rate of DNA synthesis was measured by thymidine incorporation.

HMVEC-d = experiment: Thymidine incorporation in HMVEC-d exposed to SCF; assay type: cell-based, human; settings: basal medium, 48 hr
Description: as §2

[5] = SCF 50 ng/ml after serum starvation

B1: SCF: Stem cell factor protein (R&D Systems), ligand of the c-Kit receptor (protein)
chain: KEICGNPVTDNVKDITKLVANLPNDYMITLNYVAGMDVLPSHCWLRDMVIQLSLSLTTLLDKFSNISEGLSNYSIIDKLGKIVDDLVLCMEENAPKNIKESPKRPETRSFTPEEFFSIFNRSIDAFKDFMVASDTSDCVLSSTLGPEKDSRVSVTKPFMLPPVA
time to mature appearing capillary-like structures (HBMEC): ≤ 18 h | time to migration in Matrigel (HBMEC): ≤ 4 h | bMVEC-B tube formation on matrigel (bMVEC-B cells [1]): enhanced bMVEC-B cell tube formation; also recorded: at much earlier time point and more completely | duration of p38 MAPK activation ([2]; SCF 50 ng/ml): over 30 min | phosphorylation of 4E-BP1 ([2]; SCF 50 ng/ml): increased phosphorylation of 4E-BP1 | phosphorylation of Akt ([2]; SCF 50 ng/ml): significantly enhanced | phosphorylation of MEK1/2 ([2]; SCF 50 ng/ml): dramatically increased | phosphorylation of p44/42 MAPK ([2]; SCF 50 ng/ml): dramatically increased | time of SAPK/JNK activation following SCF exposure ([2]; SCF 50 ng/ml): 10 to 15 min | duration of c-Kit auto-tyrosine-phosphorylation [2, 5]: 30 min | time of peak c-Kit auto-tyrosine-phosphorylation [2, 5]: 10 to 15 min | blood vessel formation within the matrigel plug (H&E) (SCID mice): stimulates angiogenesis | phosphorylation of Akt [3]: induced immediate phosphorylation | phosphorylation of SAPK/JNK [3]: could not induce phosphorylation | phosphorylation of c-Kit [3]: induced immediate phosphorylation | phosphorylation of p38 MAPK [3]: could not induce phosphorylation | phosphorylation of p44/42 MAPK [3]: induced immediate phosphorylation | proliferation (thymidine incorporation) (HUVEC): stimulated proliferation in all three primary ECs in a dose-dependent manner | glioma cell proliferation (glioma cells): failed to induce proliferation | DiI-labelled cells near the SCF injection site (SVZ stem cells; ventricular DiI): greater number of DiI positive cells; also recorded: significant numbers of DiI labelled cells | GFP-positive cells in the SCF-injected cortex (SVZ stem cells; ventricular GFP adenovirus): a large number of GFP-positive cells had migrated | bMVEC-B DNA synthesis (thymidine incorporation) (bMVEC-B cells [4]): stimulated DNA synthesis | proliferation (thymidine incorporation) (HMVEC-d): stimulated proliferation in all three primary ECs in a dose-dependent manner
